Assay results from publication PMC5730197, “Evolution-guided adaptation of an adenylation domain substrate specificity to an unusual amino acid” (PLoS ONE, 2017).

Key:
Assay in all cases: purified protein
Settings in all cases: amino acid-dependent exchange of 32P from PPi into ATP
[1] = substrate: CCC[C@H]1CN[C@H](C(=O)O)C1; type: biochemical, Streptomyces lincolnensis
[2] = substrate: O=C(O)[C@@H]1CCCN1
[3] = substrate: CCC[C@H]1CN[C@H](C(=O)O)C1; type: biochemical, Streptomyces caelestis
[4] = substrate: CCCCC[C@H]1CN[C@H](C(=O)O)C1; type: biochemical, Streptomyces caelestis

Row | Protein | Km [1] [mM] | kcat [1] [s⁻¹] | kcat/Km [1] [M⁻¹ s⁻¹] | Km [2] [mM] | also measured
1 | LmbC (Streptomyces lincolnensis; I300L) (protein, full-length stand-alone A-domain, C-terminal His8 tag kept, pET42b (plmbC1), E. coli BL21(DE3)) MSSSVRLSTLLASAAEARPEAPAVLGETRLPVTYGELAARAGGIQAALAGLGVRAGDRVALLSGRTDADAVAAVHAILAAGAVYVPLDAASPPARWASVSRVCAPTAVVGERALLDRFAAAVPGPRRLALPSDGDELPAGRLDPVRSDGTDVAYLLTTSGSTGVPKCVAHTGAGAVAFLEWMVGAFPVGGDDVFACHAPLHFDVSVASVLGSALGGAALAPVPRELSGFPVELATWIAERAVTVWLSVPYPLARLSGLEERAARERLATLRTVVFAGDVFPHQRLAALMRCAPGARFLNLYGPTETNGCTYEVVDAPPAGPVPIGRPVECAECWVEDDDGRPVDAVGSVGELVVAGPTVAAGYWGVEGHGAERFRTGETCPGGRAYATGDQVRVLPGGRYAFLGRMDNMIKMRGQRFELEEVENAVRLAPGVEDCCVVKVDVRDDHSRLLAVVVGPGAGDPRTLREHCLTRLPSWAVPHRFLTAAALPLGSTGKVDRRALREELVTRGE | 0.24 ± 0.009 | 0.75 ± 0.00833 | 3080 | – | –
2 | LmbC (Streptomyces lincolnensis; G308V) (protein, full-length stand-alone A-domain, C-terminal His8 tag kept, pET42b (plmbC1), E. coli BL21(DE3)) MSSSVRLSTLLASAAEARPEAPAVLGETRLPVTYGELAARAGGIQAALAGLGVRAGDRVALLSGRTDADAVAAVHAILAAGAVYVPLDAASPPARWASVSRVCAPTAVVGERALLDRFAAAVPGPRRLALPSDGDELPAGRLDPVRSDGTDVAYLLTTSGSTGVPKCVAHTGAGAVAFLEWMVGAFPVGGDDVFACHAPLHFDVSVASVLGSALGGAALAPVPRELSGFPVELATWIAERAVTVWLSVPYPLARLSGLEERAARERLATLRTVVFAGDVFPHQRLAALMRCAPGARFLNIYGPTETNVCTYEVVDAPPAGPVPIGRPVECAECWVEDDDGRPVDAVGSVGELVVAGPTVAAGYWGVEGHGAERFRTGETCPGGRAYATGDQVRVLPGGRYAFLGRMDNMIKMRGQRFELEEVENAVRLAPGVEDCCVVKVDVRDDHSRLLAVVVGPGAGDPRTLREHCLTRLPSWAVPHRFLTAAALPLGSTGKVDRRALREELVTRGE | 5.8 ± 0.6 | 0.0065 ± 0.000333 | 1.17 | – | –
3 | LmbC (Streptomyces lincolnensis; A207F) (protein, full-length stand-alone A-domain, C-terminal His8 tag kept, pET42b (plmbC1), E. coli BL21(DE3)) MSSSVRLSTLLASAAEARPEAPAVLGETRLPVTYGELAARAGGIQAALAGLGVRAGDRVALLSGRTDADAVAAVHAILAAGAVYVPLDAASPPARWASVSRVCAPTAVVGERALLDRFAAAVPGPRRLALPSDGDELPAGRLDPVRSDGTDVAYLLTTSGSTGVPKCVAHTGAGAVAFLEWMVGAFPVGGDDVFACHAPLHFDVSVFSVLGSALGGAALAPVPRELSGFPVELATWIAERAVTVWLSVPYPLARLSGLEERAARERLATLRTVVFAGDVFPHQRLAALMRCAPGARFLNIYGPTETNGCTYEVVDAPPAGPVPIGRPVECAECWVEDDDGRPVDAVGSVGELVVAGPTVAAGYWGVEGHGAERFRTGETCPGGRAYATGDQVRVLPGGRYAFLGRMDNMIKMRGQRFELEEVENAVRLAPGVEDCCVVKVDVRDDHSRLLAVVVGPGAGDPRTLREHCLTRLPSWAVPHRFLTAAALPLGSTGKVDRRALREELVTRGE | 8.6 ± 1 | 0.0733 ± 0.005 | 8.5 | – | –
4 | LmbC (Streptomyces lincolnensis; L246Y) (protein, full-length stand-alone A-domain, C-terminal His8 tag kept, pET42b (plmbC1), E. coli BL21(DE3)) MSSSVRLSTLLASAAEARPEAPAVLGETRLPVTYGELAARAGGIQAALAGLGVRAGDRVALLSGRTDADAVAAVHAILAAGAVYVPLDAASPPARWASVSRVCAPTAVVGERALLDRFAAAVPGPRRLALPSDGDELPAGRLDPVRSDGTDVAYLLTTSGSTGVPKCVAHTGAGAVAFLEWMVGAFPVGGDDVFACHAPLHFDVSVASVLGSALGGAALAPVPRELSGFPVELATWIAERAVTVWYSVPYPLARLSGLEERAARERLATLRTVVFAGDVFPHQRLAALMRCAPGARFLNIYGPTETNGCTYEVVDAPPAGPVPIGRPVECAECWVEDDDGRPVDAVGSVGELVVAGPTVAAGYWGVEGHGAERFRTGETCPGGRAYATGDQVRVLPGGRYAFLGRMDNMIKMRGQRFELEEVENAVRLAPGVEDCCVVKVDVRDDHSRLLAVVVGPGAGDPRTLREHCLTRLPSWAVPHRFLTAAALPLGSTGKVDRRALREELVTRGE | 33 ± 6 | 0.00617 ± 0.0005 | 0.183 | 54 ± 2 | kcat [2]: 0.217 s⁻¹; kcat/Km [2]: 4 M⁻¹ s⁻¹
5 | LmbC (Streptomyces lincolnensis; V274C) (protein, full-length stand-alone A-domain, C-terminal His8 tag kept, pET42b (plmbC1), E. coli BL21(DE3)) MSSSVRLSTLLASAAEARPEAPAVLGETRLPVTYGELAARAGGIQAALAGLGVRAGDRVALLSGRTDADAVAAVHAILAAGAVYVPLDAASPPARWASVSRVCAPTAVVGERALLDRFAAAVPGPRRLALPSDGDELPAGRLDPVRSDGTDVAYLLTTSGSTGVPKCVAHTGAGAVAFLEWMVGAFPVGGDDVFACHAPLHFDVSVASVLGSALGGAALAPVPRELSGFPVELATWIAERAVTVWLSVPYPLARLSGLEERAARERLATLRTVCFAGDVFPHQRLAALMRCAPGARFLNIYGPTETNGCTYEVVDAPPAGPVPIGRPVECAECWVEDDDGRPVDAVGSVGELVVAGPTVAAGYWGVEGHGAERFRTGETCPGGRAYATGDQVRVLPGGRYAFLGRMDNMIKMRGQRFELEEVENAVRLAPGVEDCCVVKVDVRDDHSRLLAVVVGPGAGDPRTLREHCLTRLPSWAVPHRFLTAAALPLGSTGKVDRRALREELVTRGE | 0.39 ± 0.04 | 0.65 ± 0.0167 | 1670 | – | –
6 | CcbC (Streptomyces caelestis; V306G) (protein) MNTSTVRNSLSTLLADTAAATPGATALREPGGDTTYRDLAALAGGIQTALAEAGVRPGDRVAVLAPQTAAAVAAVHAVLSAGAAYVPLDPASPPARWAAVCGMSTPRAVVGTRDALAKLTAELPHLATVDLEAPWPEAPLAPVEREAADLGAVLPTSGSTGVPKGVAISREALLAFASWMVDTFEVGADDVIAGFSPLHFDVSVFSLFGAALTGAALAPAPPQLAGFPHELASWADDAGITVWYSVPYPLARLGTLDAVVLEQRLGRLRCVCFAGEVFPHRQLATLMSKMPWVRYTNLYGPTETNGCTFEQVLAPPDEAIAIGSPACGAECWVERDGERVDTEGAVGELIVAGPTVADGYWGNEDETARRFRFGREYRSGRAYATGDQVRILPDGRYAYLGRQDHMVKIRGQRLELEEVESVLGTADGVTGCCVVAVTPPGRPALLCAAVVGDQLDHAALRSHCRGRLPSWAIPQRFLEVPAIPLTSTGKTDRQEVRRRVMAELV | – | – | – | 37 ± 2 | –
7 | CcbC (Streptomyces caelestis; V306G/Y244L) (protein, full-length stand-alone A-domain, N-terminal His6 tag kept, pET28b (pccbC), E. coli BL21(DE3)) MNTSTVRNSLSTLLADTAAATPGATALREPGGDTTYRDLAALAGGIQTALAEAGVRPGDRVAVLAPQTAAAVAAVHAVLSAGAAYVPLDPASPPARWAAVCGMSTPRAVVGTRDALAKLTAELPHLATVDLEAPWPEAPLAPVEREAADLGAVLPTSGSTGVPKGVAISREALLAFASWMVDTFEVGADDVIAGFSPLHFDVSVFSLFGAALTGAALAPAPPQLAGFPHELASWADDAGITVWLSVPYPLARLGTLDAVVLEQRLGRLRCVCFAGEVFPHRQLATLMSKMPWVRYTNLYGPTETNGCTFEQVLAPPDEAIAIGSPACGAECWVERDGERVDTEGAVGELIVAGPTVADGYWGNEDETARRFRFGREYRSGRAYATGDQVRILPDGRYAYLGRQDHMVKIRGQRLELEEVESVLGTADGVTGCCVVAVTPPGRPALLCAAVVGDQLDHAALRSHCRGRLPSWAIPQRFLEVPAIPLTSTGKTDRQEVRRRVMAELV | – | – | – | – | Km [3]: 24 ± 3 mM; kcat [3]: 0.001 ± 5e-05 s⁻¹; kcat/Km [3]: 0.0433 M⁻¹ s⁻¹
8 | CcbC (Streptomyces caelestis) (protein) MNTSTVRNSLSTLLADTAAATPGATALREPGGDTTYRDLAALAGGIQTALAEAGVRPGDRVAVLAPQTAAAVAAVHAVLSAGAAYVPLDPASPPARWAAVCGMSTPRAVVGTRDALAKLTAELPHLATVDLEAPWPEAPLAPVEREAADLGAVLPTSGSTGVPKGVAISREALLAFASWMVDTFEVGADDVIAGFSPLHFDVSVFSLFGAALTGAALAPAPPQLAGFPHELASWADDAGITVWYSVPYPLARLGTLDAVVLEQRLGRLRCVCFAGEVFPHRQLATLMSKMPWVRYTNLYGPTETNVCTFEQVLAPPDEAIAIGSPACGAECWVERDGERVDTEGAVGELIVAGPTVADGYWGNEDETARRFRFGREYRSGRAYATGDQVRILPDGRYAYLGRQDHMVKIRGQRLELEEVESVLGTADGVTGCCVVAVTPPGRPALLCAAVVGDQLDHAALRSHCRGRLPSWAIPQRFLEVPAIPLTSTGKTDRQEVRRRVMAELV | – | – | – | 0.36 ± 0.03 | kcat [2]: 0.917 s⁻¹; kcat/Km [2]: 2550 M⁻¹ s⁻¹
9 | CcbC (Streptomyces caelestis; F205A/V306G/Y244L) (protein, full-length stand-alone A-domain, N-terminal His6 tag kept, pET28b (pccbC), E. coli BL21(DE3)) MNTSTVRNSLSTLLADTAAATPGATALREPGGDTTYRDLAALAGGIQTALAEAGVRPGDRVAVLAPQTAAAVAAVHAVLSAGAAYVPLDPASPPARWAAVCGMSTPRAVVGTRDALAKLTAELPHLATVDLEAPWPEAPLAPVEREAADLGAVLPTSGSTGVPKGVAISREALLAFASWMVDTFEVGADDVIAGFSPLHFDVSVASLFGAALTGAALAPAPPQLAGFPHELASWADDAGITVWLSVPYPLARLGTLDAVVLEQRLGRLRCVCFAGEVFPHRQLATLMSKMPWVRYTNLYGPTETNGCTFEQVLAPPDEAIAIGSPACGAECWVERDGERVDTEGAVGELIVAGPTVADGYWGNEDETARRFRFGREYRSGRAYATGDQVRILPDGRYAYLGRQDHMVKIRGQRLELEEVESVLGTADGVTGCCVVAVTPPGRPALLCAAVVGDQLDHAALRSHCRGRLPSWAIPQRFLEVPAIPLTSTGKTDRQEVRRRVMAELV | – | – | – | – | Km [4]: 2.5 ± 1 mM; kcat [4]: 0.000417 ± 5e-05 s⁻¹; kcat/Km [4]: 0.167 M⁻¹ s⁻¹; Km [3]: 6.4 ± 1 mM; kcat [3]: 0.000333 ± 1.67e-05 s⁻¹; kcat/Km [3]: 0.05 M⁻¹ s⁻¹
